Here are results for one substance from article PMC2895659.

For experiment [1], the target named is E1/E2 glycoprotein complex of Jc1/G451R (Jc1 with a single G451R mutation within E2) on HCV particles (hepatitis C virus genotype 2a (J6CF)) (UniProt P26660).
The target of experiment [2] is E1/E2 glycoprotein complex of Jc1/mCD81 (Jc1 carrying L216F, V388G and M405T) on HCV particles (hepatitis C virus genotype 2a (J6CF)) (UniProt P26660).

Consider “recombinant fusion protein between GST and the human CD81 large extracellular loop (LEL) (domain or fragment)”, for which the reduction of luciferase reporter virus infection of Lunet N hCD81 cells after preincubation with 10 µg/ml hCD81 LEL in experiment [1] and in experiment [2] was more than 10 fold in each case.
